In PMC6852375 (The Febs Journal, 2019):
Changes are numbered by the printed parent chain.

T1: Murine OPG-Fc (mouse, UniProt O08712 22-401)
T1 sequence (looked up): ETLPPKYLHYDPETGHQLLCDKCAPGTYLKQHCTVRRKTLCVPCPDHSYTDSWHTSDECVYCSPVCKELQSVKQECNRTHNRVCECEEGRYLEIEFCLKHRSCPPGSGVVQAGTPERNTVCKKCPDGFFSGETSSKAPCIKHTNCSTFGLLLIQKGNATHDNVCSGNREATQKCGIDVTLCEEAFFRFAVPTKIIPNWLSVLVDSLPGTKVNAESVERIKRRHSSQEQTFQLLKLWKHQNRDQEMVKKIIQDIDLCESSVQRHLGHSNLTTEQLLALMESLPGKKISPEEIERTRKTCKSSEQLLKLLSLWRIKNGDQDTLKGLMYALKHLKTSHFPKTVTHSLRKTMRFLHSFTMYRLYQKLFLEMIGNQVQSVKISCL

T2: Murine RANK-Fc (mouse, UniProt O35305 31-214)
T2 sequence (looked up): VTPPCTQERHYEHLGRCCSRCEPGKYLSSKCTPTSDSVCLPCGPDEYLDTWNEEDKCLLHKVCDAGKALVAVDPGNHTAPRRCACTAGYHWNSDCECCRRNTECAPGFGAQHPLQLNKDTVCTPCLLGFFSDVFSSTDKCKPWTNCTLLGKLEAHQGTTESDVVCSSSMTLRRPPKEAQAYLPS

B1: RANKL_Q236D (ligand, mouse, UniProt O35235 160-316, looked up)
chain: EAQPFAHLTINAASIPSGSHKVTLSSWYHDRGWAKISNMTLSNGKLRVNQDGFYYLYANICFRHHETSGSVPTDYLDLMVYVVKTSIKIPSSHNLMKGGSTKNWSGNSEFHFYSINVGGFFKLRAGEEISIQVSNPSLLDPDQDATYFGAFKVQDID
B2: RANKL_WT (mouse soluble RANKL, aa 160–316) (ligand, UniProt O35235 160-316, looked up)
chain: B1 chain with D77Q
B3: RANKL_Q236N (ligand, mouse, UniProt O35235 160-316, looked up)
chain: B1 chain with D77N
B4: RANKL_Q236S (ligand, mouse, UniProt O35235 160-316, looked up)
chain: B1 chain with D77S
B5: RANKL_Q236K (ligand, mouse, UniProt O35235 160-316, looked up)
chain: B1 chain with D77K
B6: RANKL_Q236H (ligand, mouse, UniProt O35235 160-316, looked up)
chain: B1 chain with D77H
B7: RANKL_Q236A (ligand, mouse, UniProt O35235 160-316, looked up)
chain: B1 chain with D77A
B8: RANKL_Q236P (ligand, mouse, UniProt O35235 160-316, looked up)
chain: B1 chain with D77P

target: T1, Murine OPG-Fc; test: ELISA

| binding relative to RANKL_WT [%] | Binder |
| --- | --- |
| 25 | B1 |

target: T2, Murine RANK-Fc; test: SPR

| Kd [pM] | koff [s⁻¹] | kon [M⁻¹ s⁻¹] | Binder |
| --- | --- | --- | --- |
| 11.9 ± 1.5 | 0.0001 | 8.4e+06 | B2 |
| 22.1 ± 2.9 | 0.00017 | 7.9e+06 | B3 |
| 15 ± 3.2 | 9e-05 | 6.4e+06 | B1 |
| 24.9 ± 5.1 | 0.00018 | 7e+06 | B4 |
| 119 ± 10.5 | 0.00095 | 8e+06 | B5 |
| 18.7 ± 2.8 | 0.00013 | 6.7e+06 | B6 |
| 21.5 ± 6.6 | 0.00018 | 8.9e+06 | B7 |
| 19.8 ± 6 | 0.00012 | 6.1e+06 | B8 |

target: T1, Murine OPG-Fc; test: SPR

| Kd [pM] | koff [s⁻¹] | kon [M⁻¹ s⁻¹] | Binder |
| --- | --- | --- | --- |
| 4.3 ± 1.6 | 7e-05 | 1.8e+07 | B2 |
| 20.7 ± 3.7 | 0.00031 | 1.5e+07 | B3 |
| 112 ± 24.4 | 0.0007 | 6e+06 | B1 |
| 23.3 ± 4.5 | 0.00031 | 1.4e+07 | B4 |
| 143 ± 44.6 | 0.00146 | 1.1e+07 | B5 |
| 16.6 ± 1.6 | 0.00022 | 1.3e+07 | B6 |
| 20.5 ± 2.2 | 0.00033 | 1.6e+07 | B7 |
| 21.3 ± 8.2 | 0.00022 | 1.1e+07 | B8 |
